B1: factor VIIa/tissue factor (TF) complex (protein)
chain 1: ANAFLEELRPGSLERECKEEQCSFEEAREIFKDAERTKLFWISYSDGDQCASSPCQNGGSCKDQLQSYICFCLPAFEGRNCETHKDDQLICVNENGGCEQYCSDHTGTKRSCRCHEGYSLLADGVSCTPTVEYPCGKIPILEKRNASKPQGRIVGGKVCPKGECPWQVLLLVNGAQLCGGTLINTIWVVSAAHCFDKIKNWRNLIAVLGEHDLSEHDGDEQSRRVAQVIIPSTYVPGTTNHDIALLRLHQPVVLTDHVVPLCLPERTFSERTLAFVRFSLVSGWGQLLDRGATALELMVLNVPRLMTQDCLQQSRKVGDSPNITEYMFCAGYSDGSKDSCKGDSGGPHATHYRGTWYLTGIVSWGQGCATVGHFGVYTRVSQYIEWLQKLMRSEPRPGVLLRAPFP
chain 2: SGTTNTVAAYNLTWKSTNFKTILEWEPKPVNQVYTVQISTKSGDWKSKCFYTTDTECDLTDEIVKDVKQTYLARVFSYPAGNVESTGSAGEPLYENSPEFTPYLETNLGQPTIQSFEQVGTKVNVTVEDERTLVRRNNTFLSLRDVFGKDLIYTLYYWKSSSSGKKTAKTNTNEFLIDVDKGENYCFSVQAVIPSRTVNRKSTDSPVECMGQEKGEFREIFYIIGAVVFVVIILVIILAISLHKCRKAGVGQSWKENSPLNVS

Legend:
plasma factor X = plasma factor X (UniProt P00742)
plasma factor X, sequence (P00742 whole entry, looked up): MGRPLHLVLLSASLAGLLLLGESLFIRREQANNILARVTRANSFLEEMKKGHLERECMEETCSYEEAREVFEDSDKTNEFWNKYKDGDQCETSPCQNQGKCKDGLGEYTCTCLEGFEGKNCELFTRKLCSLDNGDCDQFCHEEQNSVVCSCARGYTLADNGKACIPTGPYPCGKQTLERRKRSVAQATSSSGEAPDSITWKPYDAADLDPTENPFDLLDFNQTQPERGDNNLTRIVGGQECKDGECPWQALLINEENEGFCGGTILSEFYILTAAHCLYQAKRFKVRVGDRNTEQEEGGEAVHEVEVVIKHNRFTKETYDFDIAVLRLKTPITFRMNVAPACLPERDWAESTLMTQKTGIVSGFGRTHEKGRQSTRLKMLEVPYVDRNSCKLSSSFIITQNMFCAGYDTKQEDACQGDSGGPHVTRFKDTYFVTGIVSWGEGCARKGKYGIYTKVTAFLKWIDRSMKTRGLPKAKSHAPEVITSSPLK

plasma factor X, P00742, sequence (P00742 whole entry, looked up): as above

Molecule	appearance of FXa activity after incubation with thrombin (100 nM FX / 10 nM IIa, up to 8 h) (plasma factor X)	FXa generated after incubation with FVIIa/TF (rate of hydrolysis of PNAPEP substrate) (plasma factor X, P00742)
thrombin	did not result in the appearance of FXa activity	
B1		the already activated plasma FX and the plasma FX treated with the FVIIa/FT both gave a positive signal of the same order of magnitude
